# Experimental data as given in patent US7211422B2, “Polypeptide having α-isomaltosylglucosaccharide synthase activity” (Kabushiki Kaisha Hayashibara Seibutsu Kagaku Kenkyujo, priority 2001, dated 2007).
# How the values were obtained:
# [1] = Effect of temperature and pH on α-isomaltosylglucosaccharide-forming enzyme activity; assay type: biochemical; conditions: for Optimum temperature: pH 6.0 for 60 minutes; for Optimum pH: incubated at 35° C. for 60 minutes
# Method: The two types of enzymatic activities described above were measured as following. The activity of α-isomaltosylglucosaccharide-forming enzyme was measured by the following assay: A substrate solution was prepared by dissolving maltotriose in 100 mM acetate buffer (pH 6.0) to give a concentration of 2% (w/v). A reaction mixture was prepared by mixing 0.5 ml of the substrate solution and 0.5 ml of an enzyme solution, and incubated at 35° C. for 60 minutes. After stopping the reaction by boiling for 10 minutes, the amount of maltose formed in the reaction mixture was determined by high-performance liquid chromatography (HPLC). One unit of α-isomaltosylglucosaccharide-forming activity was defined as the amount of the enzyme that forms one μmole of maltose per minute under the above conditions. HPLC was carried out using “SHODEX KS-801 column”, Showa Denko K. K., Tokyo, Japan, at a column temperature of 60° C. and a flow rate of 0.5 ml/minutes of water, and using “RI-8012”, a differential refractometer commercialized by Tosoh Corporation, Tokyo, Japan.
# The effect of temperature and pH on the α-isomaltosylglucosaccharide-forming enzyme activity was examined in accordance with the assay for the α-isomaltosylglucosaccharide-forming enzyme activity under various temperature and pH conditions. The effect of temperature was conducted in the presence or absence of 1 mM Ca^2+. […] The optimum temperature of the polypeptide having α-isomaltosylglucosaccharide-forming enzyme activity from a strain C11 was about 45° C. (in the absence of Ca^2+) and about 50° C. (in the presence of Ca^2+) when incubated at pH 6.0 for 60 minutes, and the optimum pH was about 6.0 when incubated at 35° C. for 60 minutes. The optimum temperature of the polypeptide having α-isomaltosylglucosaccharide-forming enzyme activity from a strain N75 was about 50° C. (in the absence of Ca^2+) and about 55° C. (in the presence of Ca^2+) when incubated at pH 6.0 for 60 minutes, and the optimum pH was about 6.0 when incubated at 35° C. for 60 minutes. The optimum temperature of the polypeptide having α-isomaltosylglucosaccharide-forming enzyme activity from a strain A19 was about 60° C. (in the absence of Ca^2+) and about 65° C. (in the presence of Ca^2+) when incubated at pH 8.4 for 60 min, and the optimum pH was about 8.4 when incubated at 35° C. for 60 minutes.
# [2] = Thermal stability and pH stability (residual enzyme activity); assay type: physicochemical; conditions: 20 mM acetate buffer pH 6.0, 60 minutes
# Method: The thermal stability of the polypeptide having α-isomaltosylglucosaccharide-forming enzyme activity was determined by incubating the testing polypeptide solution in 20 mM acetate buffer, pH6.0 (in the case of the polypeptide from a strain A19, 20 m M Glycine-NaOH buffer, pH 8.0) at prescribed temperatures for 60 minutes in the presence or absence of 1 mM Ca^2+, cooling with water the resulting polypeptide solutions, and assaying the residual enzyme activity of each solution. The pH stability of the polypeptide having α-isomaltosylglucosaccharide-forming enzyme activity was determined by keeping the testing polypeptide solutions in 50 mM buffer having prescribed pHs at 4° C. for 24 hours, adjusting the pH of each solution to 6.0 (in the case of the polypeptide from a strain A19, pH 8.0), and assaying the residual enzyme activity of each solution. […] The thermal stability of the polypeptide having α-isomaltosylglucosaccharide-forming enzyme activity from a strain C11 was up to about 40° C. (in the absence of Ca^2+) and about 45° C. (in the presence of Ca^2+), and pH stability of about 5.0 to about 10.0. The thermal stability of the polypeptide having α-isomaltosylglucosaccharide-forming enzyme activity from a strain N75 was up to about 45° C. (in the absence of Ca^2+) and about 50° C. (in the presence of Ca^2+), and pH stability of about 5.0 to about 9.0. The thermal stability of the polypeptide having α-isomaltosylglucosaccharide-forming enzyme activity from a strain A19 was up to about 55° C. (in the absence of Ca^2+) and about 60° C. (in the presence of Ca^2+), and pH stability of about 5.0 to about 9.0.
# [3] = Isoelectric point by isoelectrophoresis (2% ampholine gel); assay type: physicochemical; conditions: gel containing 2% (w/v) ampholine
# Text: Purified specimens of the polypeptide having α-isomaltosylglucosaccharide-forming enzyme activity from Bacillus globisporus C11 obtained by the method in Experiment 1-3, Bacillus globisporus N75 obtained by the method in Experiment 2–3, and Arthrobacter globiformis A19 obtained by the method in Experiment 3-3 were subjected to isoelectrophoresis using a gel containing 2% (w/v) ampholine commercialized by Amersham Biosciences K. K., Tokyo, Japan (old name, Amersham Pharmacia Biotech), and then measured pHs of protein bands and gel to determine their isoelectric points.
# [4] = Test on reducing-power formation; assay type: biochemical; conditions: 1% (w/v) maltotetraose, 0.25 unit/g substrate, 35° C., pH 6.0 (pH 8.4 for A19)
# Method: The following test was carried out to study whether the polypeptide having α-isomaltosylglucosaccharide-forming enzyme activity had the ability of forming reducing-power or not. To a 1% (w/v) aqueous solution of maltotetraose as a substrate was added 0.25 unit/g substrate, d.s.b., of either of purified polypeptide specimen of α-isomaltosylglucosaccharide-forming enzyme from Bacillus globisporus C11 obtained by the method in Experiment 1-3, Bacillus globisporus N75 obtained by the method in Experiment2-3, or Arthrobacter globiformis A19 obtained by the method in Experiment 3-3, and incubated at 35° C. and at pH 6.0, except that pH 8.4 was used for the enzyme from Arthrobacter globiformis A19. During the reaction, a portion of each reaction mixture was sampled at prescribed time intervals and measured for reducing power after keeping at 100° C. for 10 minutes to stop the enzymatic reaction. Before and after the enzymatic reaction, the reducing sugar content and total sugar content were respectively quantified by the Somogyi-Nelson method and anthrone-sulfuric acid method. The percentage of forming reducing power was calculated by the following equation: Percentage of forming reducing power (%)=(AR/AT−BR/BT)×100 Equation: • AR: Reducing sugar content after enzymatic reaction. • AT: Total sugar content after enzymatic reaction. • BR: Reducing sugar content before enzymatic reaction. • BT: Total sugar content before enzymatic reaction.
molecule,measurement,setting,value
"Enzyme of Strain C11: purified polypeptide having α-isomaltosylglucosaccharide-forming enzyme activity from Bacillus globisporus C11 (Experiment 1-3); contains SEQ ID NO: 1 (protein, Bacillus globisporus C11) YVSSLGNLISSSVTGDTLTLTVDNGAEPSDDLLIVQAVQNGILKVDYRPNSITPSAKTPMLDPNKTWSAVGATINTTANPMTITTSNMKIEITKNPVRMTVKKADGTTLFWEPSGGGVFSDGVRFLHATGDNMYGIRSFNAFDSGGDLLRNSSNHAAHAGEQGDSGGPLIWSTAGYGLLVDSDGGYPYTDSTTGQMEFYYGGTPPEGRRYAKQNVEYYIMLGTPKEIMTDVGEITGKPPMLPKWSLGFMNFEWDTNQTEFTNNVDTYRAKNIPIDAYAFDYDWKKYGETNYGEFAWNTTNFPSASTTSLKSTMDAKGIKMIGITKPRIVTKDASANVTTQGTDATNGGYFYPGHNEYQDYFIPVTVRSIDPYNANERAWFWNHSTDALNKGIVGWWNDETDKVSSGGALYWFGNFTTGHMSQTMYEGGRAYTSGAQRVWQTARTFYPGAQRYATTLWSGDIGIQYNKGERINWAAGMQEQRAVMLSSVNNGQVKWGMDTGGFNQQDGTTNNPNPDLYARWMQFSALTPVFRVHGNNHQQRQPWYFGSTAEEASKEAIQLRYSLIPYMYAYERSAYENGNGLVRPLMQAYPTDAAVKNYTDAWMFGDWLLAAPVVDKQQTSKDIYLPSGSWIDYARGNAITGGQTIRYSVNPDTLTDMPLFIKKGAIIPTQKVQDYVGQASVTSVDVDVFPDTTQSSFTYYDDDGASYNYESGTYFKQNMTAQDNGSGSLSFTLGAKSGSYTPALQSYIVKLHGSAGTSVTNNSAAMTSYASLEALKAAAGEGWATGKDIYGDVTYVKVTAGTASSKSIAVTGVAAVSATTSQYEAEDASLSGNSVAAKASINTNHTGYTGTGFVDGLGNDGAGVTFYPKVKTGGDYNVSLRYANASGTAKSVSIFVNGKRVKSTSLANLANWDTWSTQSETLPLTAGVNVVTYKYYSDAGDTGNVNIDNITVPFAPIIGKYEAESAELSGGSSLNTNHWYYSGTAFVDGLSAVGAQVKYNVNVPSAGSYQVALRYANGSAATKTLSTYINGAKLGQTSFTSPGTNWNVWQDNVQTVTLNAGANTIAFKYDAADSGNINVDRLLLSTSAAGTPVSEQNLLDNPGFERDTSQTNNWIEWHPGTQAVAFGVDSGSTTNPPESPWSGDKRAYFFAAGAYQQSIHQTISVPVNNVKYKFEAWVRMKNTTPTTARAEIQNYGGSAIYANISNSGVWKYISVSDIMVTNGQIDVGFYVDSPGGTTLHIDDVRVTKQ",Optimum temperature,[1]; in the absence of Ca2+,about 45 °C
same,Optimum temperature,[1]; in the presence of 1 mM Ca2+,about 50 °C
same,Optimum pH,[1],about 6.0
same,Thermal stability,[2]; in the absence of Ca2+,up to 40 °C
same,Isoelectric point,[3],about 5.2±0.5
same,Percentage of forming reducing power,[4]; reaction time 0 hour,0.0%
same,Percentage of forming reducing power,[4]; reaction time 1 hour,0.1%
same,Percentage of forming reducing power,[4]; reaction time 2 hours,0.0%
same,Percentage of forming reducing power,[4]; reaction time 4 hours,0.1%
same,Percentage of forming reducing power,[4]; reaction time 8 hours,0.0%
"Enzyme of Strain N75: purified polypeptide having α-isomaltosylglucosaccharide-forming enzyme activity from Bacillus globisporus N75 (Experiment 2-3); contains SEQ ID NO: 2 (protein, Bacillus globisporus N75) HVSALGNLLSSAVTGDTLTLTIDNGAEPNDDILVLQAVQNGILKVDYRPNGVAPSADTPMLDPNKTWPSIGAVINTASNPMTITTPAMKIEIAKNPVRLTVKKPDGTALLWEPPTGGVFSDGVRFLHGTGDNMYGIRSFNAFDSGGDLLRNSSTQAARAGDQGNSGGPLIWSTAGYGVLVDSDGGYPFTDEATGKLEFYYGGTPPEGRRYTKQDVEYYIMLGTPKEIMSGVGEITGKPPMLPKWSLGFMNFEWDLNEAELKNHVDTYRAKNIPIDGYAIDFDWKKYGENNYGEFAWNTANFPSAATTALKSQMDAKGIKMIGITKPRIATKDFSNNPTVQGTDAASGGYFYPGHSEYKDYFIPVFVRSIDPYNPAARSWFWNHSKDAFDKGIVGWWNDETDAVSSGGASYWFGNFTTGHMSQALYEGQRAYTSNAQRVWQTARTFYPGAQRYATTLWSGDIGIQYTKGERINWAAGMQEQRAVMLSSINNGQVKWGMDTGGFNQQDGTTNNPNPDLYARWMQFSALTPVFRVHGNNHQQRQPWYYGSTAEEASKEALQLRYSLIPYMYAYERSAYENGNGLVRPLMQEYPADANAKNYLDAWMFGDWLLAAPVVEKQQTSKEIYLPAGTWIDYNRGTVLTGGQKISYAVNPDTLTDIPLFIKKGAIIPSQKVQDYVGQAPVQTVDVDVFPNTAQSSFTYYDDDGSSYNYESGAYFKQLMTAQDNGSGALSFTLGAKTGTYSPALQSYIVKLHGAAGASVTSNGAALASYASLQALKASASEGWAKGKDIYGDVTYVKLSAGAAAAKAIAVTGNSPVSVADVQYEAEEASLSGNTTATKATVNTNHAGYTGSGFVDGLSNPGAAVTFYPKVKTGGDYNVSLRYANSTGAAKSVSIFVNGKRVKSTSLANLPNWDTWGTQAETLPLTAGTNVVTYKFYSDAGDTGSVNLDNITVPFAPAIGKYEAESAELSGGSTVNQNHWFYSGTAFVDGLTAPGAQVKYTVNAPAAGSYQIALRYANGTGAAKTLSTYVNGTKLGQTAFASPGGNWNVWQDSVQTVALAAGTNTIAFKYDAGDSGSGSVNLDRLLLSAAAPGVPVSEQNLLDNGGFERDPSQSSNWTEWHPASQAIAYGIDSGSGMNPPESPWAGDKRAYFYAAGPYQQSIHQTVSVPVNNAKYKFEAWVLLKNTTPTTARVEIQNYGGSPIFTNISKDGVWKYISVSDIQVTNGQIDIGFYVDSPGGTTLHIDDVRVTKQ",Optimum temperature,[1]; in the absence of Ca2+,about 50 °C
same,Optimum temperature,[1]; in the presence of 1 mM Ca2+,about 55 °C
same,Optimum pH,[1],about 6.0
same,Thermal stability,[2]; in the presence of 1 mM Ca2+,≤ 50 °C
same,Isoelectric point,[3],about 7.3±0.5
same,Percentage of forming reducing power,[4]; reaction time 0 hour,0.0%
same,Percentage of forming reducing power,[4]; reaction time 1 hour,0.1%
same,Percentage of forming reducing power,[4]; reaction time 2 hours,0.0%
same,Percentage of forming reducing power,[4]; reaction time 4 hours,0.0%
same,Percentage of forming reducing power,[4]; reaction time 8 hours,0.1%
